Legend:
Human CD38 [1] = target: T1, Human CD38 (human, UniProt P28907 1-300); test: cell-based or functional assay
Human CD38 [2] = target: T1, Human CD38; test: cell binding assay, apparently on OPM2 myeloma cells (method cited from Huber et al 2003)

γH2AX foci per cell (DNA double-strand breaks) 0.5 h after treatment, OPM2 cells compared to ARH77 cells (Human CD38 [1]) [fold]	EC50 (Human CD38 [2]) [nM]	Binder
~2.5		^213Bi-anti-CD38-MAb (antibody, V domains shown) VH: QVQLVESGGGLVQPGGSLRLSCAASGFTFSSYYMNWVRQAPGKGLEWVSGISGDPSNTYYADSVKGRFTISRDNSKNTLYLQMNSLRAEDTAVYYCARDLPLVYTGFAYWGQGTLVTVSS VL: DIELTQPPSVSVAPGQTARISCSGDNLRHYYVYWYQQKPGQAPVLVIYGDSKRPSGIPERFSGSNSGNTATLTISGTQAEDEADYYCQTYTGGASLVFGGGTKLTVLG
	16.4	CHX-A″-DPTA-anti-CD38-MAb (antibody, V domains shown, Anti-CD38-MAb MOR03087 (= MOR202) covalently coupled to SCN-CHX-A″-DTPA; also called Chelated anti-CD38-MAb; CHX-A″-DTPA conjugate of MOR03087 (MOR202)) VH: QVQLVESGGGLVQPGGSLRLSCAASGFTFSSYYMNWVRQAPGKGLEWVSGISGDPSNTYYADSVKGRFTISRDNSKNTLYLQMNSLRAEDTAVYYCARDLPLVYTGFAYWGQGTLVTVSS VL: DIELTQPPSVSVAPGQTARISCSGDNLRHYYVYWYQQKPGQAPVLVIYGDSKRPSGIPERFSGSNSGNTATLTISGTQAEDEADYYCQTYTGGASLVFGGGTKLTVLG
